In publication PMC4775916 (Antimicrobial Agents and Chemotherapy, 2016):
Several values for one entry are separate records, joined by “and”; a condition that tells them apart may be missing. Equal values may be shown once.

Legend:
VIM-5 [1] = tested on: VIM-5; set-up: method as in Garcar et al. (6); details: previous studies ref Garcar et al. (6), cited from earlier work
VIM-2 [2] = tested on: VIM-2; set-up: method as in Poirel et al. (5); details: previous studies ref Poirel et al. (5), cited from earlier work
VIM-1 [3] = molecular target: T1, VIM-1 (Pseudomonas aeruginosa, UniProt A0A0F7KYQ8); assay: Steady-state kinetics of β-lactam substrate hydrolysis; assay type: biochemical
T1 construct: The N- and C- terminal residues of the mature enzymes are labelled 26; made in house
Method: (§1) The hydrolysis of a representative panel of β-lactam substrates was monitored at their respective absorbance wavelengths. The wavelengths and extinction coefficients used were previously described ([34]). The assays were carried out using 50 mM HEPES buffer (pH 7.2) supplemented with 1 μg/ml bovine serum albumin (BSA), 1 μM ZnSO4, and 0.01% Triton X-100. In the case of VIM-1, C-terminally His6-tagged VIM-1 was used for kinetic analyses. Note that no differences were observed between the activities of untagged VIM-1 and C-terminally His6-tagged VIM-1 for the selected antibiotics (data not shown). The initial rates were obtained from the changes in absorbance at various substrate concentrations. Steady-state kinetic parameters (Km and kcat) were determined by fitting the initial velocity data to the Michaelis-Menten equation using GraphPad Prism 5.01 software (see Table S4 in the supplemental material).

VIM-38 [4] = molecular target: T2, VIM-38 (Pseudomonas aeruginosa, UniProt A0A0F7KYQ8, A128K/A265V/E202A/H201L/K257T/S205R); assay: as above; assay type: biochemical; details: 50 mM HEPES pH 7.2, apparent for ampicillin and ceftazidime
T2 construct: The N- and C- terminal residues of the mature enzymes are labelled 26; His6 with HRV3C cleavage site (pET-28a) (N, cleaved yes); made in house; host or cells: E. coli BL21(DE3)
Method: as §1

VIM-5 [5] = molecular target: T3, VIM-5 (Pseudomonas aeruginosa, UniProt A0A0F7KYQ8, A128K/E202A/H201L/K257T/S205R); assay: as above; assay type: biochemical; details: 50 mM HEPES pH 7.2, apparent for ampicillin and ceftazidime
T3 construct: His6 with HRV3C cleavage site (pET-28a) (N, cleaved yes); made in house; host or cells: E. coli BL21(DE3)
Method: as §1

VIM-2 [6] = molecular target: T4, VIM-2 (Escherichia coli, UniProt Q5U7L7); assay type: biochemical; details: 50 mM HEPES pH 7.2; apparent for ampicillin and ceftazidime
T4 construct: His6 (N, cleaved yes); made in house
Method: as §1

VIM-1 [7] = molecular target: T1, VIM-1; details: previous studies ref Franceschini et al. (4), cited from earlier work
VIM-4 = molecular target: T5, VIM-4 (Pseudomonas aeruginosa, UniProt A0A0F7KYQ8, S205R); assay: Inhibition of enzyme-mediated nitrocefin hydrolysis; assay type: biochemical; details: read-out: IC50 VIM-4 (H224, R228); note: 10 min preincubation
T5 construct: His6 (N, cleaved yes); made in house
Method: (§2) Inhibitors were prepared as reported previously ([36], [41]). Enzyme-mediated hydrolysis of nitrocefin was monitored by determining the changes in absorbance at 495 nm, as previously described ([36], [37]). Residual activities were first determined at a 100 μM inhibitor concentration. […] The residual activities were obtained at increasing inhibitor concentrations (0.2 to 2,000 μM); the data were analyzed using GraphPad Prism 5.01 software.

VIM-1 [8] = molecular target: T1, VIM-1; assay: as above; assay type: biochemical; details: read-out: IC50 VIM-1 (H224, S228)
Method: as §2

VIM-38 [9] = molecular target: T2, VIM-38; assay: as above; assay type: biochemical
Method: as §2

VIM-5 [10] = molecular target: T3, VIM-5; assay: as above; assay type: biochemical
Method: as §2

VIM-2 [11] = molecular target: T4, VIM-2; assay: as above; assay type: biochemical; details: read-out: IC50 VIM-2 (Y224, R228)
Method: as §2

[12] = tested on: O=C(Cc1cccs1)N[C@@H]1C(=O)N2C(C(=O)O)=C(/C=C/c3ccc([N+](=O)[O-])cc3[N+](=O)[O-])CS[C@H]12; assay: Nitrocefin hydrolysis kinetics before thermal denaturation and after refolding; assay type: biochemical; details: other: nitrocefin hydrolysis
Method: Circular dichroism (CD) analyses were carried out using a Chirascan CD spectrophotometer (Applied Photophysics) equipped with a Peltier temperature-controlled cell holder. CD measurements were collected in the range of 185 to 260 nm; spectra were baseline corrected and smoothed using a Savitzky-Golay filter. Data were normalized at 207 nm to account for differences in protein concentrations ([38]), and the estimation of secondary structure content was performed with Dichro Web ([39]) using the CONTIN Analysis Programme (reference set 6) ([40]). Melting temperatures (Tm) of the recombinant enzymes were determined by monitoring temperature-induced changes in the CD signal at 222 nm. The temperature was increased by 1°C per min, and the CD signal was recorded at temperatures ranging from 25°C to 92°C. The samples were then cooled from 92°C to 25°C at the same rate, and a CD spectrum of the refolded proteins was determined. The activity of the enzymes was recorded before thermal denaturation and after refolding by monitoring nitrocefin hydrolysis. The thermal denaturation data were fitted to a Boltzmann sigmoidal curve by using GraphPad Prism 5.0 software. CD spectra and thermal denaturation curves are shown in Fig. 2 and in Tables S2 and S3 in the supplemental material.

[13] = tested on: C[C@@H](O)[C@H]1C(=O)N2C(C(=O)O)=C(S[C@@H]3CN[C@H](C(=O)N(C)C)C3)[C@H](C)[C@H]12; assay: Steady-state kinetics of β-lactam substrate hydrolysis; assay type: biochemical; details: other: C-terminally His6-tagged VIM-1, 50 mM HEPES pH 7.2, apparent for ampicillin and ceftazidime
Method: as §1

[14] = tested on: O=C(Cc1cccs1)N[C@@H]1C(=O)N2C(C(=O)O)=C(/C=C/c3ccc([N+](=O)[O-])cc3[N+](=O)[O-])CS[C@H]12; assay: as above; assay type: biochemical; details: other: C-terminally His6-tagged VIM-1, 50 mM HEPES pH 7.2, apparent for ampicillin and ceftazidime
Method: as §1

[15] = tested on: C[C@@H](O)[C@H]1C(=O)N2C(C(=O)O)=C(SCCN=CN)C[C@H]12; assay: as above; assay type: biochemical; details: other: C-terminally His6-tagged VIM-1, 50 mM HEPES pH 7.2, apparent for ampicillin and ceftazidime
Method: as §1

[16] = tested on: CO[C@@]1(NC(=O)Cc2cccs2)C(=O)N2C(C(=O)O)=C(COC(N)=O)CS[C@@H]21; assay: as above; assay type: biochemical; details: other: C-terminally His6-tagged VIM-1, 50 mM HEPES pH 7.2, apparent for ampicillin and ceftazidime
Method: as §1

[17] = tested on: CC(=O)OCC1=C(C(=O)O)N2C(=O)[C@@H](NC(=O)Cc3cccs3)[C@H]2SC1; assay: as above; assay type: biochemical; details: other: C-terminally His6-tagged VIM-1, 50 mM HEPES pH 7.2, apparent for ampicillin and ceftazidime
Method: as §1

[18] = tested on: CC(C)(O/N=C(\C(=O)N[C@@H]1C(=O)N2C(C(=O)[O-])=C(C[n+]3ccccc3)CS[C@H]12)c1csc(N)n1)C(=O)O; assay: as above; assay type: biochemical; details: other: C-terminally His6-tagged VIM-1, 50 mM HEPES pH 7.2, apparent for ampicillin and ceftazidime
Method: as §1

[19] = tested on: C[C@@H](O)[C@H]1C(=O)N2C(C(=O)O)=C(S[C@@H]3CN[C@H](C(=O)N(C)C)C3)[C@H](C)[C@H]12; assay: purified protein, by the assay type; assay type: biochemical; details: other: 50 mM HEPES pH 7.2, apparent for ampicillin and ceftazidime
Method: as §1

[20] = tested on: O=C(Cc1cccs1)N[C@@H]1C(=O)N2C(C(=O)O)=C(/C=C/c3ccc([N+](=O)[O-])cc3[N+](=O)[O-])CS[C@H]12; assay: purified protein, by the assay type; assay type: biochemical; details: other: 50 mM HEPES pH 7.2, apparent for ampicillin and ceftazidime
Method: as §1

[21] = tested on: C[C@@H](O)[C@H]1C(=O)N2C(C(=O)O)=C(SCCN=CN)C[C@H]12; assay: purified protein, by the assay type; assay type: biochemical; details: other: 50 mM HEPES pH 7.2, apparent for ampicillin and ceftazidime
Method: as §1

[22] = tested on: CO[C@@]1(NC(=O)Cc2cccs2)C(=O)N2C(C(=O)O)=C(COC(N)=O)CS[C@@H]21; assay: purified protein, by the assay type; assay type: biochemical; details: other: 50 mM HEPES pH 7.2, apparent for ampicillin and ceftazidime
Method: as §1

[23] = tested on: CC(=O)OCC1=C(C(=O)O)N2C(=O)[C@@H](NC(=O)Cc3cccs3)[C@H]2SC1; assay: purified protein, by the assay type; assay type: biochemical; details: other: 50 mM HEPES pH 7.2, apparent for ampicillin and ceftazidime
Method: as §1

[24] = tested on: CC(C)(O/N=C(\C(=O)N[C@@H]1C(=O)N2C(C(=O)[O-])=C(C[n+]3ccccc3)CS[C@H]12)c1csc(N)n1)C(=O)O; assay: purified protein, by the assay type; assay type: biochemical; details: other: 50 mM HEPES pH 7.2, apparent for ampicillin and ceftazidime
Method: as §1

## C[C@@H](O)[C@H]1C(=O)N2C(C(=O)O)=C(S[C@@H]3CN[C@H](C(=O)N(C)C)C3)[C@H](C)[C@H]12 [Meropenem]
VIM-5 [1]
  kcat VIM-5 (previous study): 2.4 s⁻¹
VIM-5 [1]; read-out: Km VIM-5 (previous study)
  Km: 49 µM
VIM-2 [2]
  kcat VIM-2 (previous study): 1.4 s⁻¹
VIM-2 [2]; read-out: Km VIM-2 (previous study)
  Km: 5 µM
VIM-1 [3]; C-terminally His6-tagged VIM-1, 50 mM HEPES pH 7.2, apparent for ampicillin and ceftazidime
  kcat VIM-1: 50 s⁻¹
VIM-1 [3]; VIM-1 versus VIM-2
  Km for VIM-1 fold higher than that for VIM-2: > 6 fold
  kcat for VIM-1 fold higher than those for VIM-2: > 7 fold
VIM-38 [4]
  kcat VIM-38: 10 s⁻¹
VIM-38 [4]; read-out: Mean Km ± SD VIM-38
  Km: 30 ± 4 µM
VIM-5 [5]
  kcat VIM-5: 16 s⁻¹ and 20 s⁻¹
VIM-5 [5]; read-out: Mean Km ± SD VIM-5
  Km: 70 ± 10 µM
VIM-2 [6]
  kcat VIM-2: 7 s⁻¹
VIM-1 [7]
  kcat VIM-1 (previous study): 13 s⁻¹
VIM-1 [7]; read-out: Km VIM-1 (previous study)
  Km: 48 µM

## O=C(N[C@H](Cc1c[nH]c2ccccc12)C(=O)O)c1ncccc1O [compound 3]
VIM-4
  IC50: 125 µM
VIM-1 [8]
  IC50: 50 µM
VIM-38 [9]
  IC50: 50 µM
VIM-5 [10]
  IC50: 50 µM
VIM-2 [11]
  IC50: 100 µM

## VIM-1 (Pseudomonas aeruginosa PAO1)
[12]; after refolding
  Km: 26 ± 3 µM
[12]; pre-heating
  Km: 20 ± 2 µM
  kcat: 7 s⁻¹
  kcat/Km: 300000 M⁻¹ s⁻¹
[13]
  Km: 130 ± 20 µM
  kcat: 50 s⁻¹
  kcat/Km: 400000 M⁻¹ s⁻¹
[14]
  Km: 15 ± 1 µM
  kcat: 130 s⁻¹
  kcat/Km: 8.7e+06 M⁻¹ s⁻¹
[15]
  Km: 60 ± 10 µM
  kcat: 30 s⁻¹
  kcat/Km: 500000 M⁻¹ s⁻¹
[16]
  Km: 170 ± 50 µM
  kcat: 30 s⁻¹
  kcat/Km: 200000 M⁻¹ s⁻¹
[17]
  Km: 140 ± 10 µM
  kcat: 450 s⁻¹
  kcat/Km: 3.2e+06 M⁻¹ s⁻¹
[18]
  Km: 180 ± 60 µM
  kcat: 3 s⁻¹
  kcat/Km: 20000 M⁻¹ s⁻¹

## VIM-2 (Escherichia coli)
[12]; after refolding
  Km: 15 ± 1 µM
  kcat: 130 s⁻¹
  kcat/Km: 8.7e+06 M⁻¹ s⁻¹
[19]
  Km: 20 ± 4 µM
  kcat: 7 s⁻¹
  kcat/Km: 300000 M⁻¹ s⁻¹
[20]
  Km: 50 ± 5 µM
  kcat: 510 s⁻¹
  kcat/Km: 1.02e+07 M⁻¹ s⁻¹
[21]
  Km: 33 ± 4 µM and 30 ± 4 µM
  kcat: 95 s⁻¹ and 100 s⁻¹
  kcat/Km: 3.3e+06 M⁻¹ s⁻¹
[22]
  Km: 40 ± 10 µM
  kcat: 50 s⁻¹
  kcat/Km: 1.3e+06 M⁻¹ s⁻¹
[23]
  Km: 50 ± 6 µM
  kcat: 210 s⁻¹
  kcat/Km: 4.2e+06 M⁻¹ s⁻¹
[24]
  Km: 120 ± 20 µM
  kcat: 2 s⁻¹
  kcat/Km: 20000 M⁻¹ s⁻¹
